Data as given in PMC3335016, “Analysis of the Nse3/MAGE-Binding Domain of the Nse4/EID Family Proteins” (PLoS ONE, 2012).

Legend:
Assay in all cases: ELISA; PEPSCAN ELISA; biotinylated EID2 peptides (400 nM) on streptavidin-coated plates; His-S-MAGEC2(129-339) 200–400 nM, 4°C overnight; anti-His detection
Conditions in all cases: both partners purified
[1] = target: T1, EID2 peptide #1 (Q197A) (human, Q197A (stands in the printed letters), biotin, linked via the SGSG spacer)
T1 construct: source: synthetic peptide (Mimotopes)
T1 peptide: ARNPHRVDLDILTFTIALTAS

[2] = target: T2, EID2 peptide #2 (R198A) (human, R198A (stands in the printed letters), biotin, linked via the SGSG spacer)
T2 construct: source: synthetic peptide (Mimotopes)
T2 peptide: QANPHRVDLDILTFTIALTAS

[3] = target: T3, EID2 peptide #6 (R202A) (human, R202A (stands in the printed letters), biotin, linked via the SGSG spacer)
T3 construct: source: synthetic peptide (Mimotopes)
T3 peptide: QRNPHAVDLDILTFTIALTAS

[4] = target: T4, EID2 peptide #9 (L205A) (human, L205A (stands in the printed letters), biotin, linked via the SGSG spacer)
T4 construct: source: synthetic peptide (Mimotopes)
T4 peptide: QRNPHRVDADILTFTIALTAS

[5] = target: T5, EID2 peptide #10 (D206A) (human, D206A (stands in the printed letters), biotin, linked via the SGSG spacer)
T5 construct: source: synthetic peptide (Mimotopes)
T5 peptide: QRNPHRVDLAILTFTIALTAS

[6] = target: T6, EID2 peptide #11 (I207A) (human, I207A (stands in the printed letters), biotin, linked via the SGSG spacer)
T6 construct: source: synthetic peptide (Mimotopes)
T6 peptide: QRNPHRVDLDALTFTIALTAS

[7] = target: T7, EID2 peptide #12 (L208A) (human, L208A (stands in the printed letters), biotin, linked via the SGSG spacer)
T7 construct: source: synthetic peptide (Mimotopes)
T7 peptide: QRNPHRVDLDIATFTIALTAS

[8] = target: T8, EID2 peptide #14 (F210A) (human, F210A (stands in the printed letters), biotin, linked via the SGSG spacer)
T8 construct: source: synthetic peptide (Mimotopes)
T8 peptide: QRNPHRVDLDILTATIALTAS

[9] = target: T9, EID2 peptide #16 (I212A) (human, I212A (stands in the printed letters), biotin, linked via the SGSG spacer)
T9 construct: source: synthetic peptide (Mimotopes)
T9 peptide: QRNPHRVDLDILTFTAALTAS

[10] = target: T10, EID2 peptide #17 (L214A) (human, L214A (stands in the printed letters), biotin, linked via the SGSG spacer)
T10 construct: source: synthetic peptide (Mimotopes)
T10 peptide: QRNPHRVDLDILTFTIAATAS

[11] = target: T11, EID2 peptide #18 (T215A) (human, T215A (stands in the printed letters), biotin, linked via the SGSG spacer)
T11 construct: source: synthetic peptide (Mimotopes)
T11 peptide: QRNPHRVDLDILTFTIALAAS

[12] = target: T12, EID2 peptide #19 (S217A) (human, S217A (stands in the printed letters), biotin, linked via the SGSG spacer)
T12 construct: source: synthetic peptide (Mimotopes)
T12 peptide: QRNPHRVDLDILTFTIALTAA

B1: His-S-MAGEC2(129-339) (domain or fragment, human, UniProt Q9UBF1 129-339, looked up)
chain: GLPDSESSFTYTLDEKVAELVEFLLLKYEAEEPVTEAEMLMIVIKYKDYFPVILKRAREFMELLFGLALIEVGPDHFCVFANTVGLTDEGSDDEGMPENSLLIIILSVIFIKGNCASEEVIWEVLNAVGVYAGREHFVYGEPRELLTKVWVQGHYLEYREVPHSSPPYYEFLWGPRAHSESIKKKVLEFLAKLNNTVPSSFPSWYKDALKD
notes: source: E. coli C41, purified (His-TRAP column, FPLC)
percent of wt binding affinity [1]: ~30 % of wt | percent of WT affinity [2]: < 20 % of WT affinity | percent of WT affinity [3]: < 20 % of WT affinity | percent of wt binding affinity [4]: ~30 % of wt | percent of wt binding affinity [5]: ~30 % of wt | percent of wt binding affinity [6]: ~30 % of wt | percent of wt binding affinity [7]: ~30 % of wt | percent of WT affinity [8]: < 20 % of WT affinity | percent of WT affinity [9]: < 20 % of WT affinity | percent of WT affinity [10]: < 20 % of WT affinity | percent of wt binding affinity [11]: ~30 % of wt | percent of wt binding affinity [12]: ~30 % of wt
